Literature values, collected in publication PMC9958082.

Target: E-cadherin (Homo sapiens) (UniProt P12830)
Settings: cited from earlier work

Chain of UniProt P12830 (P12830 155-709): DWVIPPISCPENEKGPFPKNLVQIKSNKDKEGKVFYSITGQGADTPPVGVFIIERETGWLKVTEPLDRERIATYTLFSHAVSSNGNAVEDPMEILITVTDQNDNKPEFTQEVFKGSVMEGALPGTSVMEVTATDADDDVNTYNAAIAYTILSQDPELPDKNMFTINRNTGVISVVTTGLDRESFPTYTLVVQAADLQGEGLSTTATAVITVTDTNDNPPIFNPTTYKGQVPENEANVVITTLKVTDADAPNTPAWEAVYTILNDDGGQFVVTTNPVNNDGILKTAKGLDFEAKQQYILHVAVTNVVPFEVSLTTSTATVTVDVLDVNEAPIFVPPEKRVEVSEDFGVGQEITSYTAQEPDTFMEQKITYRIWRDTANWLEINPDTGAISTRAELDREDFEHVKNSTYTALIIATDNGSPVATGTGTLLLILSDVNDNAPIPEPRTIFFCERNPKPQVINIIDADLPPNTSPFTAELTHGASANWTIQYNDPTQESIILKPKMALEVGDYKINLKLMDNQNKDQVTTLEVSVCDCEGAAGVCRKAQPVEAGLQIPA

For “HA (hemagglutinin complex) (from UniProt P46085)”, the Kd is listed as 2300 nM.
